The target in series [1] is 2-aminoethanethiol (cysteamine) dioxygenase (ADO), biotinylated, for SPR (human) (UniProt Q96SZ5). The experiment in a line: SPR; Biacore T200; biotinylated ADO immobilized on a Biotin CAP chip (∼2500 to 3000 RU), peptide/protein substrates injected; 4 °C; 20 mM Hepes pH 7.5, 500 mM NaCl, 10 mM DTT, 0.1% tween-20; 50 μl/min; multicycle, equilibrium steady state affinity 1:1 binding model.

Series [2] addresses T1, 2-aminoethanethiol (cysteamine) dioxygenase (ADO), biotinylated, for SPR (human, UniProt Q96SZ5 1-270, biotin (N terminally biotinylated; 0.2 mM biotin added at induction)).
T1 chain: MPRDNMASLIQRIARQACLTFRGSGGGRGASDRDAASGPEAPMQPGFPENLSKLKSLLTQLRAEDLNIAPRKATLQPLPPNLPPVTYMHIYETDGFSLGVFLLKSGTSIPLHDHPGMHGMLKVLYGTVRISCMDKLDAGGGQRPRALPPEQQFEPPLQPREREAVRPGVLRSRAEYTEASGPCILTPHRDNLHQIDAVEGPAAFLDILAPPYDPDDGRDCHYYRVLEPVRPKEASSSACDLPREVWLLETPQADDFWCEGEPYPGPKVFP
The experiment in a line: SPR. On the technique in general: In SPR one partner is held on a chip, and binding of the other changes the refractive index at the surface.

For series [3], the target named is cobalt substituted ADO (ADO-Co^2+), biotinylated, for SPR (human) (UniProt Q96SZ5). The experiment in a line: SPR; as a1, but single cycle kinetics (SCK) mode fit to a 1:1 binding model; ADO-Co^2+ immobilized.
Series [4] deals with T2, ADO-H193D, biotinylated, for SPR (human, UniProt Q96SZ5 1-270, H193D, biotin (N terminally biotinylated)).
T2 construct: 2-aminoethanethiol (cysteamine) dioxygenase (ADO), human, UniProt Q96SZ5, full length, H193D; Mutant with impaired iron retention (reduced metal occupancy by ICP-MS); source: E. coli Rosetta2(DE3), pQE80L-Navi construct, site-directed mutagenesis, purified (Ni-NTA, SEC); not shown: biotinylation tag (from the vector pQE80L-Navi), N-terminal, kept
T2 sequence (looked up): T1 chain with H193D
The experiment in a line: SPR; Biacore T200; biotinylated ADO immobilized on a Biotin CAP chip (∼2500 to 3000 RU), peptide/protein substrates injected; 4 °C; 20 mM Hepes pH 7.5, 500 mM NaCl, 10 mM DTT, 0.1% tween-20; 50 μl/min; multicycle, equilibrium steady state affinity 1:1 binding model. The settings on record: both partners purified.

Series [5] concerns the target T1, 2-aminoethanethiol (cysteamine) …. Briefly: SPR; before treatment.
Series [6] shares this target. The experiment in a line: SPR; post-metal removal (phenanthroline/EDTA).
Series [7] concerns the target ADO-H193D, biotinylated, for SPR (human, UniProt Q96SZ5 1-270, H193D, biotin (N terminally biotinylated)). The experiment in a line: SPR.
For series [8], the target named is T3, cobalt substituted ADO (ADO-Co^2+), biotinylated, for SPR (human, UniProt Q96SZ5 1-270, biotin (N terminally biotinylated)).
T3 chain: T1 chain
Briefly: SPR; single cycle kinetics.

For series [9], the target named is T1, 2-aminoethanethiol (cysteamine) …. Briefly: SPR; post-reconstitution with Fe2+.
Substrate in series [10]: CC(C)C[C@H](NC(=O)CNC(=O)[C@H](CCCCN)NC(=O)[C@@H](N)CS)C(=O)N[C@@H](C)C(=O)N[C@@H](C)C(=O)N[C@@H](CC(C)C)C(=O)N1CCC[C@H]1C(=O)N[C@@H](Cc1c[nH]cn1)C(=O)N[C@@H](CO)C(=O)N[C@@H](CS)C(=O)N[C@@H](CC(C)C)C(=O)N[C@@H](CCC(=O)O)C(=O)N[C@@H](CCCNC(=N)N)C(N)=O
The experiment in a line: LC-MS enzyme activity assay (Nt-cys sulfinylation by ADO). The conditions noted are these: other: Michaelis-Menten, stopped LC-MS assay, atmospheric O2, three independent experiments, pH 7.5. The series is classed as biochemical, human. How it is done: (§1) […] Otherwise stated, the reaction buffer contained 50 mM Tris pH 7.5, 50 mM NaCl, and 5 mM TCEP. The reactions were quenched by mixing the sample 1:10 (peptide) or 1:5 (protein) with 1% formic acid (v/v).
(§2) Peptide and protein samples were injected onto a Chromolith RP-18 Endcapped HPLC Columns (100–2 mm; Merck) and Discovery BIO Wide Pore C5 HPLC Column (Supelco), respectively, heated to 40 °C and eluted at 0.3 ml/min using a gradient of 95% deionized water supplemented with 0.1% (v/v) formic acid to 95% acetonitrile. Oxidation was monitored by an ultra high-performance liquid chromatography MS using ExionLC AD (Sciex) and SelexION (Sciex) mass spectrometer operated in a positive electrospray TOF (+ESI-TOF) mode. Instrument parameters, data acquisition and data processing were controlled by Analyst software (Sciex; https://sciex.com/products/software/analyst-software). The peptide data processing was performed using Skyline software (MacCoss Lab Software; https://skyline.ms/project/home/software/Skyline/begin.view) ([38]). All figures and parameters were generated using GraphPad Prism 9 (GraphPad; https://www.graphpad.com/features).

Substrate in series [11]: CC(C)C[C@H](NC(=O)CNC(=O)[C@H](C)NC(=O)[C@@H](N)CS)C(=O)N[C@@H](C)C(=O)N[C@@H](C)C(=O)N[C@@H](CC(C)C)C(=O)N1CCC[C@H]1C(=O)N[C@@H](Cc1c[nH]cn1)C(=O)N[C@@H](CO)C(=O)N[C@@H](CS)C(=O)N[C@@H](CC(C)C)C(=O)N[C@@H](CCC(=O)O)C(=O)N[C@@H](CCCNC(=N)N)C(N)=O
The series is described as above. The series is classed as biochemical, human. The conditions noted are these: other: Michaelis-Menten, stopped LC-MS assay, 37 °C, atmospheric O2; three independent experiments; pH 7.5; 37.0 °C. On the procedure: as §1, §2

Substrate in series [12]: CC(C)C[C@H](NC(=O)[C@H](C)NC(=O)[C@H](CCCCN)NC(=O)[C@@H](N)CS)C(=O)N[C@@H](C)C(=O)N[C@@H](C)C(=O)N[C@@H](CC(C)C)C(=O)N1CCC[C@H]1C(=O)N[C@@H](Cc1c[nH]cn1)C(=O)N[C@@H](CO)C(=O)N[C@@H](CS)C(=O)N[C@@H](CC(C)C)C(=O)N[C@@H](CCC(=O)O)C(=O)N[C@@H](CCCNC(=N)N)C(N)=O
The series is described as above. The conditions noted are these: other: Michaelis-Menten, stopped LC-MS assay, 37 °C, atmospheric O2; three independent experiments; pH 7.5; 37.0 °C. The series is classed as biochemical, human. How it is done:
as §1, §2

Positions count from the first letter of the chain named. In names and notes the source's numbering stands. Several values for one entry are separate records, joined by “and”; a condition that tells them apart may be missing. Equal values may be shown once.

Usually Kd stands for the concentration at which binding is half-saturated. Broadly, the Km is the concentration of substrate that gives half-maximal velocity. By kcat is commonly meant the number of substrate molecules converted per active site and unit of time at saturation.

For the molecule “RGS5 tripeptide (tri-RGS5) (from UniProt O15539 2-4)”, in [1], the Kd is 460 nM.

As to “RGS5 dipeptide (di-RGS5) (from UniProt O15539 2-3)”, the Kd in [1] is 1200 nM.

B1: RGS5-L5A (peptide)
chain: CKGAAALPHSCLER
With B1, in series [2], the Kd came to 220 nM.

B2: native IL32 peptide (first 14 amino acids of the methionine excised N terminus of interleukin 32) (peptide, UniProt P24001 2-15, looked up)
peptide: CFPKVLSDDMKKLK
notes: interleukin 32 (IL32), first 14 amino acids of the methionine excised N terminus: residues 2-15 with the initiating methionine denoted as 1; source: synthetic peptide (SPPS, HPLC purified)
The molecule B2 returned a fold increase in binding affinity relative to native ADO in [3] of 10 fold. Moreover, in series [4], the “fold weaker KD than with WT ADO” value is roughly 77 fold.

B3: RGS5-L8A (peptide)
chain: CKGLAAAPHSCLER
With B3, the Kd in series [2] came to 310 nM.

B4: native RGS5 peptide (first 14 amino acids of the methionine excised N terminus of RGS5) (peptide, UniProt O15539 2-15, looked up)
peptide: CKGLAALPHSCLER
notes: regulator of G-protein signaling 5 (RGS5), first 14 amino acids of the methionine excised N terminus: residues 2-15 with the initiating methionine denoted as 1; source: synthetic peptide (SPPS, HPLC purified)
In the case of B4, the equilibrium dissociation constant (Kd) in series [5] worked out at 370 nM; in [6], 320 nM; in [7] it was 3300 nM; in series [8] it was 27 nM; in series [9], 330 nM. For the same molecule, the fold increase in binding affinity relative to native ADO in series [3] was determined as 10 fold. For the same molecule, the “fold weaker KD than with WT ADO” value in series [4] was roughly 13 fold.

B5: ADO (Homo sapiens) (protein)
chain: T1 chain
notes: Full-length human ADO (UniProt ID: Q96SZ5) was cloned; made in house; host or cells: Rosetta2(DE3) Escherichia coli
On to B5, for which the Km in [10] (25 °C, 25.0 °C) was 62 µM and 125 µM; in series [10] (37 °C, 37.0 °C) it was 83 µM; in series [11], 1970 µM; in series [12], 33 µM. The kcat in [10] (25 °C, 25.0 °C) was 7 s⁻¹ and 19 s⁻¹; in series [10] (37 °C, 37.0 °C) it was 22 s⁻¹; in series [11], 100 s⁻¹; in [12], 8 s⁻¹. For the same molecule, the kcat/Km in series [10] (25 °C, 25.0 °C) is 1.1 x 10^5 s^-1M^-1 and 1.5 x 10^5 s^-1M^-1; in series [11] it was 0.51 x 10^5 s^-1M^-1; in [12], 2.4 x 10^5 s^-1M^-1.

B6: RGS5-H10A (peptide)
chain: CKGLAALPASCLER
In turn, B6 returned a Kd in series [2] of 240 nM.
